Patent publication USRE47150 (Bayer, dated 2018)
Where a chain is given by its changes, count along the chain named. Numbers in names are those of the source.

T1: human tissue factor pathway inhibitor (TFPI) (human, UniProt P10646 29-304, limits assumed)
T1 construct: bought; also called hTFPI; human TFPI
T1 sequence (looked up): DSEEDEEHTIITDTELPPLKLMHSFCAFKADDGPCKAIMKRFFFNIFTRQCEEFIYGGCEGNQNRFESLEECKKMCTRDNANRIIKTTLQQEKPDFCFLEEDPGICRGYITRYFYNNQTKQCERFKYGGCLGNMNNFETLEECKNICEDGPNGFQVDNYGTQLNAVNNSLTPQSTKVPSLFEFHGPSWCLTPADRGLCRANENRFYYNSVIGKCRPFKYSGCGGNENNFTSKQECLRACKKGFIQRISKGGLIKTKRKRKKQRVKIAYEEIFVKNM

T2: mouse tissue factor pathway inhibitor (TFPI) (mouse, UniProt O54819 29-289, limits assumed)
T2 construct: bought; also called mTFPI; murine TFPI
T2 sequence (looked up): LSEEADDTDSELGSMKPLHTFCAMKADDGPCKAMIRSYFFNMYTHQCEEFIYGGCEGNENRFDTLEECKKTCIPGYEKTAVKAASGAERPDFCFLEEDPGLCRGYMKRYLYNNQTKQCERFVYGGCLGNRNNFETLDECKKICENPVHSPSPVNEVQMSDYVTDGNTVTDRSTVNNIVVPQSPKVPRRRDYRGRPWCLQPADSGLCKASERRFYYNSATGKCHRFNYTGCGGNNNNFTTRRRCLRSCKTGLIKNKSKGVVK

B1: B9.7 (4B7 HC N32D+D62R+Y112D/LC S32R+N35I) (Fab, V domains shown)
VH: QVQLQQSGPGLVKPSQTLSLTCAISGDSVSSDSAAWSWIRQSPGRGLEWLGIIYKRSKWYNRYAVSVKSRITINPDTSKNQFSLQLNSVTPEDTAVYYCARWHSDKHWGFDDWGQGTLVTVSS
VL: DIVMTQSPLSLPVTPGEPASISCRSSQSLVFRDGITYLNWYLQKPGQSPQLLIYKGSNRASGVPDRFSGSGSGTDFTLKISRVEAEDVGVYYCQQYDSYPLTFGQGTKVEIKR
B2: B2.0 (4B7 HC N32D+D62R+Y112D/LC S32R+D33F+N35I+D97T) (Fab, V domains shown)
VH: B1 VH
VL: B1 VL with D33F, D97T
B3: 4B7 HC_H103D (Fab, V domains shown)
VH: B1 VH with D32N, R62D, H103D, D112Y
VL: B1 VL with R32S, I35N
B4: 4B7 LC_D33F (Fab, V domains shown)
VH: B1 VH with D32N, R62D, D112Y
VL: B1 VL with R32S, D33F, I35N
B5: 4B7 HC_S30R HC_S57K (Fab, V domains shown)
VH: B1 VH with S30R, D32N, S57K, R62D, D112Y
VL: B1 VL with R32S, I35N
B6: 4B7 HC_N32E (Fab, V domains shown)
VH: B1 VH with D32E, R62D, D112Y
VL: B1 VL with R32S, I35N
B7: 4B7 LC_F31M (Fab, V domains shown)
VH: B1 VH with D32N, R62D, D112Y
VL: B1 VL with F31M, R32S, I35N
B8: 4B7 LC_S32R (Fab, V domains shown)
VH: B1 VH with D32N, R62D, D112Y
VL: B1 VL with I35N
B9: 4B7 HC_S57K (Fab, V domains shown)
VH: B1 VH with D32N, S57K, R62D, D112Y
VL: B1 VL with R32S, I35N
B10: 4B7 HC_N61G (Fab, V domains shown)
VH: B1 VH with D32N, N61G, R62D, D112Y
VL: B1 VL with R32S, I35N
B11: 4B7 LC_D97T (Fab, V domains shown)
VH: B1 VH with D32N, R62D, D112Y
VL: B1 VL with R32S, I35N, D97T
B12: 4B7 LC_S61C (Fab, V domains shown)
VH: B1 VH with D32N, R62D, D112Y
VL: B1 VL with R32S, I35N, S61C
B13: 4B7 LC_S57Y (Fab, V domains shown)
VH: B1 VH with D32N, R62D, D112Y
VL: B1 VL with R32S, I35N, S57Y
B14: 4B7 HC_N61G HC_D62V (Fab, V domains shown)
VH: B1 VH with D32N, N61G, R62V, D112Y
VL: B1 VL with R32S, I35N
B15: 4B7 LC_N35V LC_G56D (Fab, V domains shown)
VH: B1 VH with D32N, R62D, D112Y
VL: B1 VL with R32S, I35V, G56D
B16: 4B7 LC_Y37F (Fab, V domains shown)
VH: B1 VH with D32N, R62D, D112Y
VL: B1 VL with R32S, I35N, Y37F
B17: 4B7 LC_N35L LC_G56A (Fab, V domains shown)
VH: B1 VH with D32N, R62D, D112Y
VL: B1 VL with R32S, I35L, G56A
B18: 4B7 HC_N32D (Fab, V domains shown)
VH: B1 VH with R62D, D112Y
VL: B1 VL with R32S, I35N
B19: 4B7 LC_D97M (Fab, V domains shown)
VH: B1 VH with D32N, R62D, D112Y
VL: B1 VL with R32S, I35N, D97M
B20: 4B7 LC_N35T (Fab, V domains shown)
VH: B1 VH with D32N, R62D, D112Y
VL: B1 VL with R32S, I35T
B21: 4B7 HC_K58M HC_D62N (Fab, V domains shown)
VH: B1 VH with D32N, K58M, R62N, D112Y
VL: B1 VL with R32S, I35N
B22: 4B7 LC_N35I (Fab, V domains shown)
VH: B1 VH with D32N, R62D, D112Y
VL: B1 VL with R32S
B23: 4B7 HC_H103G (Fab, V domains shown)
VH: B1 VH with D32N, R62D, H103G, D112Y
VL: B1 VL with R32S, I35N
B24: 4B7 HC_S33G (Fab, V domains shown)
VH: B1 VH with D32N, S33G, R62D, D112Y
VL: B1 VL with R32S, I35N
B25: 4B7 HC_H107M LC_F31I (Fab, V domains shown)
VH: B1 VH with D32N, R62D, H107M, D112Y
VL: B1 VL with F31I, R32S, I35N
B26: 4B7 LC_N35L (Fab, V domains shown)
VH: B1 VH with D32N, R62D, D112Y
VL: B1 VL with R32S, I35L
B27: 4B7 LC_F31I (Fab, V domains shown)
VH: B1 VH with D32N, R62D, D112Y
VL: B1 VL with F31I, R32S, I35N
B28: 4B7 LC_S32Y (Fab, V domains shown)
VH: B1 VH with D32N, R62D, D112Y
VL: B1 VL with R32Y, I35N
B29: 4B7 HC_H107M (Fab, V domains shown)
VH: B1 VH with D32N, R62D, H107M, D112Y
VL: B1 VL with R32S, I35N
B30: 4B7 LC_D33R (Fab, V domains shown)
VH: B1 VH with D32N, R62D, D112Y
VL: B1 VL with R32S, D33R, I35N
B31: 4B7 HC_Y112D (Fab, V domains shown)
VH: B1 VH with D32N, R62D
VL: B1 VL with R32S, I35N
B32: 4B7 LC_D33F LC_Y54F (Fab, V domains shown)
VH: B1 VH with D32N, R62D, D112Y
VL: B1 VL with R32S, D33F, I35N, Y54F
B33: gB9.7-IgG (4B7 HC N32D+G44S+K55Y+D62R+Y112D/LC S32R+N35I) (antibody, V domains shown)
VH: B1 VH with G44S, K55Y
VL: B1 VL
notes: IgG format by its name

The binders below were run against T1, human tissue factor pathway inhibitor … (assay: competitive ELISA).
B1 was tested, and the variant/HC_D62R was 26.1 ratio. B2 gave a variant/HC_D62R of 26.2 ratio.

These binders were tested against T2, mouse tissue factor pathway inhibitor … (assay: competitive ELISA).
B1 was tested, and the variant/HC_D62R was 30.1 ratio. B2 gave a variant/HC_D62R of 40 ratio.

These binders were tested against T2, mouse tissue factor pathway inhibitor … (assay: equilibrium ELISA).
B3 showed a variant/wild-type of 12.9 ratio. B4 was tested, and the variant/wild-type was 7 ratio. B5 showed a variant/wild-type of 6.6 ratio. B6 showed a variant/wild-type of 2.1 ratio. B7 showed a variant/wild-type of 1.3 ratio. With B8 the variant/wild-type was 7.8 ratio. B9 showed a variant/wild-type of 6.5 ratio. B10 gave a variant/wild-type of 1.4 ratio. B11 gave a variant/wild-type of 5.5 ratio. B12 was tested, and the variant/wild-type was 15.3 ratio. B13 showed a variant/wild-type of 2.2 ratio. B14 was tested, and the variant/wild-type was 31.1 ratio. Work on B15 yielded a variant/wild-type of 8.2 ratio. With B16 the variant/wild-type was 1.9 ratio. In the case of B17, the variant/wild-type is reported as 6.9 ratio. B18 was tested, and the variant/wild-type was 6 ratio. B19 was tested, and the variant/wild-type was 1.3 ratio. Work on B20 yielded a variant/wild-type of 3.4 ratio. B21 was tested, and the variant/wild-type was 15.2 ratio. B22 gave a variant/wild-type of 7.1 ratio. For B23, the variant/wild-type was 10.7 ratio. B24 was tested, and the variant/wild-type was 6.5 ratio. B25 was tested, and the variant/wild-type was 9.2 ratio. B26 gave a variant/wild-type of 6 ratio. For B27, the variant/wild-type was 23.6 ratio. In the case of B28, the variant/wild-type is reported as 6.7 ratio. B29 showed a variant/wild-type of 5.6 ratio. Binder B30 has a variant/wild-type of 7.2 ratio. Work on B31 yielded a variant/wild-type of 5.7 ratio. Work on B32 yielded a variant/wild-type of 7.9 ratio.

The binders below were run against T2, mouse tissue factor pathway inhibitor … (assay: SPR, TFPI immobilized).
In the case of B1, the KD fold improvement is reported as 588 fold, the Kd is reported as 93.1 pM and the koff is reported as 0.000334 s⁻¹. For the same binder, the kon was 3.59e+06 M⁻¹ s⁻¹. B33 showed a KD fold improvement of 6250 fold, a Kd of 8.75 pM and a koff of 2.36e-05 s⁻¹. It also gave a kon of 2.7e+06 M⁻¹ s⁻¹. B2 was tested, and the KD fold improvement was 1210 fold, the Kd was 45.1 pM and the koff was 0.000315 s⁻¹. The kon was 6.99e+06 M⁻¹ s⁻¹.

Each binder was assayed against T1, human tissue factor pathway inhibitor … (assay: SPR, TFPI immobilized).
B1 showed a KD fold improvement of 1270 fold, a Kd of 8.78 pM and a koff of 2.61e-05 s⁻¹. The kon was 2.97e+06 M⁻¹ s⁻¹. In the case of B33, the KD fold improvement is reported as 1450 fold, the Kd is reported as 7.65 pM and the koff is reported as 1.56e-05 s⁻¹. For the same binder, the kon was 2.03e+06 M⁻¹ s⁻¹. B2 showed a KD fold improvement of 2180 fold, a Kd of 5.1 pM and a koff of 3.81e-05 s⁻¹. It also gave a kon of 7.46e+06 M⁻¹ s⁻¹.

Molecular target: T1, human tissue factor pathway inhibitor …
Experiment: competitive ELISA
Remark: another data set of the same source
B3 showed a variant/wild-type of 2.4 ratio. With B4 the variant/wild-type was 5.3 ratio. In the case of B5, the variant/wild-type is reported as 1.6 ratio. In the case of B6, the variant/wild-type is reported as 3.2 ratio. With B7 the variant/wild-type was 1.7 ratio. Work on B8 yielded a variant/wild-type of 4.2 ratio. With B9 the variant/wild-type was 1.7 ratio. For B10, the variant/wild-type was 2.2 ratio. For B11, the variant/wild-type was 1.8 ratio. B12 gave a variant/wild-type of 3.1 ratio. B13 was tested, and the variant/wild-type was 1.6 ratio. In the case of B14, the variant/wild-type is reported as 8 ratio. B15 was tested, and the variant/wild-type was 1.9 ratio. In the case of B16, the variant/wild-type is reported as 3.6 ratio. With B17 the variant/wild-type was 3.1 ratio. For B18, the variant/wild-type was 3.8 ratio. Binder B19 has a variant/wild-type of 2.4 ratio. B20 gave a variant/wild-type of 5.4 ratio. Work on B21 yielded a variant/wild-type of 6.6 ratio. B22 was tested, and the variant/wild-type was 3.6 ratio. B23 showed a variant/wild-type of 1.4 ratio. B24 was tested, and the variant/wild-type was 1.5 ratio. B25 gave a variant/wild-type of 1.7 ratio. For B26, the variant/wild-type was 2.1 ratio. B27 showed a variant/wild-type of 9.1 ratio. B28 was tested, and the variant/wild-type was 2 ratio. Binder B29 has a variant/wild-type of 8.1 ratio. Work on B30 yielded a variant/wild-type of 3.6 ratio. Work on B31 yielded a variant/wild-type of 2.9 ratio. Work on B32 yielded a variant/wild-type of 4.3 ratio.
